Results from article PMC12474298 (2025).
Where no end group is shown, it is not given here.

Assays:
Test in all cases: FP
[1] = biological target: IMPα1 minor site mutant E396R (human)
[2] = biological target: human importin α1 lacking the importin-β binding domain (hIMPα1ΔIBB) (human)
[3] = biological target: IMPα1 major site mutant D192K (human)

B1: HaHV1 UL36h NLS peptide (residues 1491-1500), FITC/Ahx-labelled (peptide)
peptide: ETKKRRRILE
modifications: not fully specified (N-terminus); also: FITC/Ahx-labelled, position not given here
- Kd [1]: 1760 nM
- Kd [2]: 362 nM
- Kd [3]: 3550 nM
